Literature values in article PMC7830601.
Like-named read-outs stand apart in the source and are kept apart here.

Tests used:
AIM2 HIN (Homo sapiens) = AIM2 HIN (Homo sapiens) (UniProt O14862); experiment: ITC
ASC PYD (Homo sapiens) [1] = molecular target: ASC PYD (Homo sapiens) (UniProt Q9ULZ3)
ASC PYD (Homo sapiens) [2] = molecular target: ASC PYD (Homo sapiens) (UniProt Q9ULZ3); remark: listed apart in the source
ASC CARD (Homo sapiens) = ASC CARD (Homo sapiens) (UniProt Q9ULZ3); experiment: NMR

AIM2 PYD (from UniProt O14862)
Kd (AIM2 HIN (Homo sapiens)): 23.5 µM

ASC2 (from UniProt Q8WXC3)
Kd (ASC PYD (Homo sapiens) [1]): 4.08 µM
Kd (ASC PYD (Homo sapiens) [2]): 3.81 µM

ASC CARD (from UniProt Q9ULZ3)
Kd (ASC CARD (Homo sapiens)): 50 µM
